B1: UGT76E11: Arabidopsis recombinant glycosyltransferase (protein, UniProt Q9SNB1 1-451, looked up)
UDP-glycosyltransferase 76E11: MEEKPAGRRVVLVAVPAQGHISPIMQLAKTLHLKGFSITIAQTKFNYFSPSDDFTDFQFVTIPESLPESDFEDLGPIEFLHKLNKECQVSFKDCLGQLLLQQGNEIACVVYDEFMYFAEAAAKEFKLPNVIFSTTSATAFVCRSAFDKLYANSILTPLKEPKGQQNELVPEFHPLRCKDFPVSHWASLESMMELYRNTVDKRTASSVIINTASCLESSSLSRLQQQLQIPVYPIGPLHLVASASTSLLEENKSCIEWLNKQKKNSVIFVSLGSLALMEINEVIETALGLDSSKQQFLWVIRPGSVRGSEWIENLPKEFSKIISGRGYIVKWAPQKEVLSHPAVGGFWSHCGWNSTLESIGEGVPMICKPFSSDQMVNARYLECVWKIGIQVEGDLDRGAVERAVRRLMVEEEGEGMRKRAISLKEQLRASVISGGSSHNSLEEFVHYMRTL
B2: UGT71C3: Arabidopsis recombinant glycosyltransferase, FIG. 2 (protein, listed as Arabidopsis thaliana)
chain: MKAEAEIIFVTYPSPGHLLVSIEFAKSLIKRDDRIHTITILYWALPLAPQAHLFAKSLVASQPRIRLLALPDVQNPPPLELFFKAPEAYILESTKKTVPLVRDALSTLVSSRKESGSVRVVGLVIDFFCVPMIEVANELNLPSYIFLTCNAGFLSMMKYLPERHRITTSELDLSSGNVEHPIPGYVCSVPTKVLPPGLFVRESYEAWVEIAEKFPGAKGILVNSVTCLEQNAFDYFARLDENYPPVYPVGPVLSLKDRPSPNLDASDRDRIMRWLEDQPESSIVYICFGSLGIIGKLQIEEIAEALELTGHRFLWSIRTNPTEKASPYDLLPEGFLDRTASKGLVCDWAPQVEVLAHKALGGFVSHCGWNSVLESLWFGVPIATWPMYAEQQLNAFSMVKELGLAVELRLDYVSAYGEIVKAEEIAGAIRSLMDGEDTPRKRVKEMAEAARNALMDGGSSFVAVKRFLDELIGGDV
B3: UGT73B1: Arabidopsis recombinant glycosyltransferase (protein, UniProt Q8VZE9 1-488, looked up)
UDP-glycosyltransferase 73B1: MGTPVEVSKLHFLLFPFMAHGHMIPTLDMAKLFATKGAKSTILTTPLNAKLFFEKPIKSFNQDNPGLEDITIQILNFPCTELGLPDGCENTDFIFSTPDLNVGDLSQKFLLAMKYFEEPLEELLVTMRPDCLVGNMFFPWSTKVAEKFGVPRLVFHGTGYFSLCASHCIRLPKNVATSSEPFVIPDLPGDILITEEQVMETEEESVMGRFMKAIRDSERDSFGVLVNSFYELEQAYSDYFKSFVAKRAWHIGPLSLGNRKFEEKAERGKKASIDEHECLKWLDSKKCDSVIYMAFGTMSSFKNEQLIEIAAGLDMSGHDFVWVVNRKGSQVEKEDWLPEGFEEKTKGKGLIIRGWAPQVLILEHKAIGGFLTHCGWNSLLEGVAAGLPMVTWPVGAEQFYNEKLVTQVLKTGVSVGVKKMMQVVGDFISREKVEGAVREVMVGEERRKRAKELAEMAKNAVKEGGSSDLEVDRLMEELTLVKLQKEKV
B4: UGT76E2: Arabidopsis recombinant glycosyltransferase, FIG. 8 (protein, listed as Arabidopsis thaliana)
chain: MEEKQVKETRIVLVPVPAQGHVTPMMQLGKALHSKGFSITVVLTQSNRVSSSKDFSDFHFLTIPGSLTESDLQNLGPQKFVLKLNQICEASFKQCIGQLLHEQCNNDIACVVYDEYMYFSHAAVKEFQLPSVVFSTTSATAFVCRSVLSRVNAESFLIDMKDPETQDKVFPGLHPLRYKDLPTSVFGPIESTLKVYSETVNTRTASAVIINSASCLESSSLARLQQQLQVPVYPIGPLHITASAPSSLLEEDRSCVEWLNKQKSNSVIYISLGSLALMDTKDMLEMAWGLSNSNQPFLWVVRPGSIPGSEWTESLPEEFNRLVSERGYIVKWAPQMEVLRHPAVGGFWSHCGWNSTVESIGEGVPMICRPFTGDQKVNARYLERVWRIGVQLEGDLDKETVERAVEWLLVDEEGAEMRKRAIDLKEKIETSVRSGGSSCSSLDDFVNSM
B5: UGT71C4: Arabidopsis recombinant glycosyltransferase, FIG. 3 (protein, listed as Arabidopsis thaliana)
chain: MVKETELIFIPVPSTGHILVHIEFAKRLINLDHRIHTITILNLSSPSSPHASVFARSLIASQPKIRLHDLPPIQDPPPFDLYQRAPEAYIVKLIKKNTPLIKDAVSSIVASRRGGSDSVQVAGLVLDLFCNSLVKDVGNELNLPSYIYLTCNARYLGMMKYIPDRHRKIASEFDLSSGDEELPVPGFINAIPTKFMPPGLFNKEAYEAYVELAPRFADAKGILVNSFTELEPHPFDYFSHLEKFPPVYPVGPILSLKDRASPNEEAVDRDQIVGWLDDQPESSVVFLCFGSRGSVDEPQVKEIARALELVGCRFLWSIRTSGDVETNPNDVLPEGFMGRVAGRGLVCGWAPQVEVLAHKAIGGFVSHCGWNSTLESLWFGVPVATWPMYAEQQLNAFTLVKELGLAVDLRMDYVSSRGGLVTCDEIARAVRSLMDGGDEKRKKVKEMADAARKALMDGGSSSLATARFIAELFEDGSSC
B6: UGT76D1: Arabidopsis recombinant glycosyltransferase, FIG. 7 (protein, listed as Arabidopsis thaliana)
chain: MAEIRQRRVLMVPAPFQGHLPSMMNLASYLSSQGFSITIVRNEFNFKDISHNFPGIKFFTIKDGLSESDVKSLGLLEFVLELNSVCEPLLKEFLTNHDDVVDFIIYDEFVYFPRRVAEDMNLPKMVFSPSSAATSISRCVLMENQSNGLLPPQDARSQLEETVPEFHPFRFKDLPFTAYGSMERLMILYENVSNRASSSGIIHNSSDCLENSFITTAQEKWGVPVYPVGPLHMTNSAMSCPSLFEEERNCLEWLEKQETSSVIYISMGSLAMTQDIEAVEMAMGFVQSNQPFLWVIRPGSINGQESLDFLPEQFNQTVTDGRGFVVKWAPQKEVLRHRAVGGFWNHGGWNSCLESISSGVPMICRPYSGDQRVNTRLMSHVWQTAYEIEGELERGAVEMAVRRLIVDQEGQEMRMRATILKEEVEASVTTEGSSHNSLNNLVHAIMMQIDEQ
B7: UGT73B4: Arabidopsis recombinant glycosyltransferase (protein, UniProt Q7Y232 1-484, looked up)
UDP-glycosyltransferase 73B4: MNREQIHILFFPFMAHGHMIPLLDMAKLFARRGAKSTLLTTPINAKILEKPIEAFKVQNPDLEIGIKILNFPCVELGLPEGCENRDFINSYQKSDSFDLFLKFLFSTKYMKQQLESFIETTKPSALVADMFFPWATESAEKIGVPRLVFHGTSSFALCCSYNMRIHKPHKKVASSSTPFVIPGLPGDIVITEDQANVTNEETPFGKFWKEVRESETSSFGVLVNSFYELESSYADFYRSFVAKKAWHIGPLSLSNRGIAEKAGRGKKANIDEQECLKWLDSKTPGSVVYLSFGSGTGLPNEQLLEIAFGLEGSGQNFIWVVSKNENQVGTGENEDWLPKGFEERNKGKGLIIRGWAPQVLILDHKAIGGFVTHCGWNSTLEGIAAGLPMVTWPMGAEQFYNEKLLTKVLRIGVNVGATELVKKGKLISRAQVEKAVREVIGGEKAEERRLRAKELGEMAKAAVEEGGSSYNDVNKFMEELNGRK

assay: UGT enzyme reaction with quercetin (recombinant UGTs, HPLC); type: biochemical, Arabidopsis; conditions: quercetin glucosylated at 3-OH; 0.5 mM quercetin, 5 mM UDP-glucose, 30° C.
Protocol: The assay mix (200 μl) contained 2 μg of recombinant protein, 100 mM Tris-HCl, pH 7.0, 5 mM UDP-glucose 1.4 mM 2-mercaptoethanol, and 0.5 mM of quercetin. The reaction was carried out at 30° C. for 1 h, and was quick-frozen and stored at −20° C. prior to the reverse-phase HPLC analysis
Reverse-phase HPLC (SpectraSYSTEM HPLC systems and UV6000LP Photodiode Array Detector, ThermoQuest) analysis was carried using a Columbus 5μ C18 column (250×4.60 mm, PHENOMENEX). Quercetin glucosides were separated from the aglycone by a linear gradient of 10-75% acetonitrile in H2O (all solution contained 0.1% trifluoroacetic acid) at 1 ml/mm over 20 mm and monitored at 370 nm. Cytokinin glucosides were separated from their aglycone by a liner gradient of 10-100% methanol in H2O (for N6-isopentenyladenine (iP), N6-benzyladenine and kinetin) or 10-60% methanol in H2O (for trans-zeatin and dihydrozeatin) at 1 ml/min over 20 mm. All solution contained 0.25% acetic acid and 0.04% triethylamine, trifluoroacetic acid. The separation was monitored at 206 nm and 252 nm. The identity of the products was confirmed by comparison with authentic gluco sides.
The activity of Arabidopsis recombinant UGTs towards quercetin was determined using the platform developed previously^15.

| Molecule | Specific activity (nkat/mg protein) 3-O-glc |
| --- | --- |
| B1 | 0.08 nkat/mg protein |
| B2 | 0.11 nkat/mg protein |
| B3 | 0.32 nkat/mg protein |
| B4 | 0.17 nkat/mg protein |
| B5 | 1.33 nkat/mg protein |
| B6 | — (Activity lower than 0.02 nkat/mg protein has been considered as trace activity and is not shown in the Table.) |
| B7 | 12.14 nkat/mg protein |

same assay, conditions: quercetin glucosylated at 3′-OH; 0.5 mM quercetin, 5 mM UDP-glucose, 30° C.

| Molecule | Specific activity (nkat/mg protein) 3′-O-glc |
| --- | --- |
| B1 | — (Activity lower than 0.02 nkat/mg protein has been considered as trace activity and is not shown in the Table.) |
| B2 | — (Activity lower than 0.02 nkat/mg protein has been considered as trace activity and is not shown in the Table.) |
| B3 | — (Activity lower than 0.02 nkat/mg protein has been considered as trace activity and is not shown in the Table.) |
| B4 | — (Activity lower than 0.02 nkat/mg protein has been considered as trace activity and is not shown in the Table.) |
| B5 | — (Activity lower than 0.02 nkat/mg protein has been considered as trace activity and is not shown in the Table.) |
| B6 | — (Activity lower than 0.02 nkat/mg protein has been considered as trace activity and is not shown in the Table.) |
| B7 | — (Activity lower than 0.02 nkat/mg protein has been considered as trace activity and is not shown in the Table.) |

same assay, conditions: quercetin glucosylated at 4′-OH; 0.5 mM quercetin, 5 mM UDP-glucose, 30° C.

| Molecule | Specific activity (nkat/mg protein) 4′-O-glc |
| --- | --- |
| B1 | — (Activity lower than 0.02 nkat/mg protein has been considered as trace activity and is not shown in the Table.) |
| B2 | — (Activity lower than 0.02 nkat/mg protein has been considered as trace activity and is not shown in the Table.) |
| B3 | — (Activity lower than 0.02 nkat/mg protein has been considered as trace activity and is not shown in the Table.) |
| B4 | — (Activity lower than 0.02 nkat/mg protein has been considered as trace activity and is not shown in the Table.) |
| B5 | — (Activity lower than 0.02 nkat/mg protein has been considered as trace activity and is not shown in the Table.) |
| B6 | — (Activity lower than 0.02 nkat/mg protein has been considered as trace activity and is not shown in the Table.) |
| B7 | — (Activity lower than 0.02 nkat/mg protein has been considered as trace activity and is not shown in the Table.) |

same assay, conditions: quercetin glucosylated at 7-OH; 0.5 mM quercetin, 5 mM UDP-glucose, 30° C.

| Molecule | Specific activity (nkat/mg protein) 7-O-glc |
| --- | --- |
| B1 | 0.12 nkat/mg protein |
| B2 | — (Activity lower than 0.02 nkat/mg protein has been considered as trace activity and is not shown in the Table.) |
| B3 | 0.14 nkat/mg protein |
| B4 | 0.21 nkat/mg protein |
| B5 | 0.63 nkat/mg protein |
| B6 | 0.24 nkat/mg protein |
| B7 | 0.18 nkat/mg protein |
